Results on 41 sequences are retold here after the nanobody polyreactivity screen of Harvey et al. (2022).

The data set is described as follows: yeast display, Sf9 membrane polyspecificity reagent, FACS + sequencing; frameworks hold sequencing errors. The method in brief: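 Nanobodies came from a synthetic yeast display library in Saccharomyces cerevisiae BJ5465, induced with galactose for 36–48 hours and stained for 1 hour at 4 °C with 10% biotinylated, detergent-solubilized Sf9 membrane reagent. Cells were enriched on streptavidin microbeads and then FACS-sorted, with low and high (top ~1%) gates set on anti-HA fluorescence for expression and streptavidin fluorescence for reagent binding. Each polyreactivity label reflects the gate a clone came from. Genes were amplified by colony PCR, sequenced by MiSeq 2 × 250 and filtered by CDR length.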
On to “QVQLVESGGGLVQAGGSLRLSCAASGFTFPGYTMGRYRQAPGKERELVAAITWSGGRTYYADSVKGRFTITRDNAKNTVYLQMNSLKPEDTEVYYCAANFGAFYGNRDYWGQGTQVTVSS”, for which the “polyreactivity (PSR sort gate)” value is given as “high polyreactivity”.

“QVQLVESGGGLVQAGGSLRLSCAASGFTFPKYAMGWYRQSPGKERELVAGITNGGSTFYADSVKGRFTISRDNAKNTVYLQMNSLKPEDPAVYYCAASGRLSLGGRFYDLGLSYDYWGQGTQVTVSS”: the “polyreactivity (PSR sort gate)” value is “low polyreactivity”.

Regarding “QVQLVESGGGLVQAGGSLRLSCAASGFTFPLYAMGWYRQAPGKERELVAAIRSSGGSTYYADSVKGRFTISRDNAKNTVYLQMNSLKPEDTAVYYCAKVRYTRRLDTYYYWGQGTQVTVSS”, the “polyreactivity (PSR sort gate)” value is “high polyreactivity”.

In the case of “QVQLVESGGGLVQAGGSLRLSCAASGFTFPNYAMGWSRQAPGKERELVAAITSGGGRTNYSDSVKGRFTISRDTAKNTVYLQMNSLKPEDTAVYYCAAEYRYDYRVYSHLHVWRYDYWGQGTQVTVSS”, the “polyreactivity (PSR sort gate)” value is “low polyreactivity”.

On to “QVQLVESGGGLVQAGGSLRLSCAASGFTFPNYDMGWYRQAPGKERELVAAITSGGGRTNYADSVKGRFTISRDNAKNTVYFQMNSLKPEDTSVYFCAKTRVRGSEFGYWGQGTQLTVSS”, for which the “polyreactivity (PSR sort gate)” value is listed as “low polyreactivity”.

For “QVQLVESGGGLVQAGGSLRLSCAASGFTFPPYAMGWYRQAPGKERELVAAITSSGGRTYYADSVKGRFTISRDNAKNTVYLQMNSLKPEDTAVYYCAAYGRFARMNYWGQGTQVTVSS”, the “polyreactivity (PSR sort gate)” value is given as “high polyreactivity”.

“QVQLVESGGGLVQAGGSLRLSCAASGFTFPRNAMGWYRQAPGKERELVAAISRGGGGTYYADSVKGRFTISRDNAKNTVYLQMNSLKPEDTAVYYFNAVYPGGSYKYDYWVQGTQVTVSS”: the “polyreactivity (PSR sort gate)” value is “high polyreactivity”.

For the sequence “QVQLVESGGGLVQAGGSLRLSCAASGFTFPRYAMGWYRQAPGKERELVAAIRRRGGSTYYADSVKGRFTISRDNAKNTVYLQMNSLKPEDTAVYYCATYNGVKGEASFDYWGQGTQVTVSS”, the “polyreactivity (PSR sort gate)” value is recorded as “high polyreactivity”.

Regarding “QVQLVESGGGLVQAGGSLRLSCAASGFTFPRYAMGWYRQAPGKERELVAAITSGDRTYYADSVKGRFTISRDNAKNTVYLQMNSLKPEDTAVYYCARVPDTEGEYWGQGTQVTVSS”, the “polyreactivity (PSR sort gate)” value is given as “high polyreactivity”.

Regarding “QVQLVESGGGLVQAGGSLRLSCAASGFTFPSYAMGWYRQAPGKERELVAVISWGGTSTYYADSVKGRFTISRDNAKNTVYLQMNSLKPEDTAVYYCATTRRVPGEYWGQGTQVTVSS”, the “polyreactivity (PSR sort gate)” value is recorded as “high polyreactivity”.

For the sequence “QVQLVESGGGLVQAGGSLRLSCAASGFTFPSYAMGWYRQAPGNERELVAVLSRRGGSTYYADSVKGRFTISRDNAKNTVYLQMNSLKPEDTAVYYCAADFRYYLTTRFNYWGQGTQVTVSS”, the “polyreactivity (PSR sort gate)” value is listed as “high polyreactivity”.

“QVQLVESGGGLVQAGGSLRLSCAASGFTFPVYGMGWYRQAPGKERELVAAISSRGGNTYYADSVKGRFTISRDNAKNTVYLQMNSLKPEDTAVYYCAAGGITYTGDDYWGQGTQVTVSS”: the “polyreactivity (PSR sort gate)” value is “high polyreactivity”.

Consider “QVQLVESGGGLVQAGGSLRLSCAASGFTFPWNVMGGYRQAPGKERELVAAITYDGGGTYADSVKGRFTISRDNAKNTVYLQMNSLKPEDTAVYYCNADLIYGEEYDYWGQGTQVTVSS”, for which the “polyreactivity (PSR sort gate)” value is given as “low polyreactivity”.

“QVQLVESGGGLVQAGGSLRLSCAASGFTFPWYAMGWYRQAPGKERELVAAINTGGSTYYADSVKGRFTISRDNAKNTVYLQMNSLKPEDTAVYYCATLGRYRYLNTYYWGSHDYWGQGTQVTVSS”: the “polyreactivity (PSR sort gate)” value is “high polyreactivity”.

Turning to “QVQLVESGGGLVQAGGSLRLSCAASGFTFPWYTMGWYRQAPGKERELVAAINSRGGSTYYADSVKGRFTISRDNAKNTVYLQMNSLKPEDTAVYYCATRSFGRMDYWGQGTQVTVSS”, the “polyreactivity (PSR sort gate)” value was “high polyreactivity”.

Take “QVQLVESGGGLVQAGGSLRLSCAASGFTFPYYAMGWSRQAPGKERELVAAITSSGTITYYADSVKGRFTISRDNAKNTVYLQMNSLKPEDTAVYYCAARFSSTRYLQWYYYWGQGTQVTVSS”: the “polyreactivity (PSR sort gate)” value is recorded as “high polyreactivity”.

As for “QVQLVESGGGLVQAGGSLRLSCAASGFTFPYYAMGWYRQAPGKERELVAAISKSGGSTYYADSVKGRFTISRDNAKNTVYLQMNSLKPEDTAVYYCAAQGGSKYRGYYYWGQGTQVTVSS”, the “polyreactivity (PSR sort gate)” value is reported as “high polyreactivity”.

Turning to “QVQLVESGGGLVQAGGSLRLSCAASGFTFPYYAMGWYRQAPGKERELVAAISWSGGSTNYADSVKGRFTISRDNAKNTVYLQMNSLIPEDTAVYYCATLPGYSMDFWGQGSQVTVSS”, the “polyreactivity (PSR sort gate)” value was “high polyreactivity”.

For “QVQLVESGGGLVQAGGSLRLSCAASGFTFPYYAMGWYRQAPGKERELVADITSGGGTNYADSVKGRFTISRDNAKNTVYLQMNSLKPEDTAVYYCAADAYHQGMDYWGQGTQVTVSS”, the “polyreactivity (PSR sort gate)” value is on record as “low polyreactivity”.

As for “QVQLVESGGGLVQAGGSLRLSCAASGFTFPYYAMGWYRQSPGKERELVASISRRGGSTYYADSVKGRFTISRDNANNSVYLQMKSLKPEDTAVYYCAADGSRGRWTFDYWGQGTQVTVSS”, the “polyreactivity (PSR sort gate)” value is recorded as “high polyreactivity”.

Turning to “QVQLVESGGGLVQAGGSLRLSCAASGFTFQAYAMGWYRQAPGKERELVAAINFSTGRTYYADSVKGRFTISRDNAKNTVYLQMNSLKPEDTAVYYCAADGSWTRSYDFDYWGQGTQLTVSS”, the “polyreactivity (PSR sort gate)” value is on record as “high polyreactivity”.

For “QVQLVESGGGLVQAGGSLRLSCAASGFTFQEYAMGWYRQAPGKERELVAVISSSGVRTYYADSVKGRFTISRDNAKNTVYLQMNSLKPEDTAVYYCAARRYHYIPSTKGNYWGQGTQVTVSS”, the “polyreactivity (PSR sort gate)” value is reported as “high polyreactivity”.

For “QVQLVESGGGLVQAGGSLRLSCAASGFTFQFYAMGWYRQAPGKERELVARISESGSRTYYADSVKGRFTISRDNAKNTVYLQMNSLKPEDTAVYYCAADNPYLGRKFDYWGQGTQVTVSS”, the “polyreactivity (PSR sort gate)” value is “high polyreactivity”.

Regarding “QVQLVESGGGLVQAGGSLRLSCAASGFTFQFYAMGWYRQAPGKESELVASIRSGVGTYYADSVKGRFTISRDNAKNTVYLQMYCVKPEDTAVYYCNAVYNRFSRSYDYWGQGTQVTVSS”, the “polyreactivity (PSR sort gate)” value is recorded as “high polyreactivity”.

For “QVQLVESGGGLVQAGGSLRLSCAASGFTFQNYAMGWYSQAPGKERELVAAITYSGGSTYYADSVKGRFTISRDNAKNPVYLQMHSLKPEDTAVYYCAKKASYWWGYEYWGQGTQVTVSS”, the “polyreactivity (PSR sort gate)” value was “low polyreactivity”.

For “QVQLVESGGGLVQAGGSLRLSCAASGFTFQNYVMGWYRQAPGKERELVAAINSGGRTYYADSVKGRFTISRDNAKNTVYLQMNSLKPEDTAVYYCNAVQPATYKYRSHVIEYDYWGQGTQVTVSS”, the “polyreactivity (PSR sort gate)” value is “high polyreactivity”.

As for “QVQLVESGGGLVQAGGSLRLSCAASGFTFQYKAMGVYRQAPGQERELVAAISRGGGRTYYADSVKGRFTISRDNAKNTVYLQMNSLKPEDTAVYYCNVLNYSSRHYLFSYDYWGQGTQVTVSS”, the “polyreactivity (PSR sort gate)” value is listed as “high polyreactivity”.

As to “QVQLVESGGGLVQAGGSLRLSCAASGFTFQYYAMGWYRQAPGKERELVAAINWSGGRTYYADSVKGRFTISRDNAKNTVYLQMNSLKPEDTAVYYCAATRSFSGGYGYVSYDYWGQGTHVTVSS”, the “polyreactivity (PSR sort gate)” value is on record as “high polyreactivity”.

Regarding “QVQLVESGGGLVQAGGSLRLSCAASGFTFQYYAMGWYRQAPGKERELVAAISRSGGSTYYADSVKGRFTISRDNAKNTVYLQMNSLKPEDTAVYYCNAGRYASGKYDYWGQGTQVTVSS”, the “polyreactivity (PSR sort gate)” value is listed as “high polyreactivity”.

Take “QVQLVESGGGLVQAGGSLRLSCAASGFTFQYYAMGWYRQAPGKERELVAAISWSGGRTYYADSVKGRFTISRDIAKNTVYLQLNSLKPEDNAVYYCAASYIVYPARYEDEGDYWGQGTQVTVSS”: the “polyreactivity (PSR sort gate)” value is “high polyreactivity”.

In the case of “QVQLVESGGGLVQAGGSLRLSCAASGFTFQYYAMGWYRQAPGKERELVAAISWSGGRTYYADSVKGRFTISRDNAKNSVYLQMNSLKPVDTAVYYCAAQWYKWAYNNTLLRYYYWGQGTQVTVSS”, the “polyreactivity (PSR sort gate)” value is reported as “high polyreactivity”.

With “QVQLVESGGGLVQAGGSLRLSCAASGFTFQYYAMGWYRQAPGKERELVAVISRSGGRTYYADSVKVRFTISRDNAKNTVYLQMNSLKPEDTAVYYCAALSQPGQSDDKQYDYWGQGTQVTVSS”, the “polyreactivity (PSR sort gate)” value is “high polyreactivity”.

For the sequence “QVQLVESGGGLVQAGGSLRLSCAASGFTFQYYAMGWYRQEPGKERELVAAISWGGGSTYYADSVKGRFTISRDNAKNTVYLQMNSLKPEDTAVYYCNAYEYLSAGYDYWGQGTQVTVSS”, the “polyreactivity (PSR sort gate)” value is “low polyreactivity”.

As for “QVQLVESGGGLVQAGGSLRLSCAASGFTFQYYVMGWYRQAPGKERELVAAISWSGGSTYYADSVKGRFSISRDNAKNTVYLQMNSLKPEDTAVYYCAAEYDEFLVRFGVWYWFDYWGQGTQVTVSS”, the “polyreactivity (PSR sort gate)” value is “high polyreactivity”.

Turning to “QVQLVESGGGLVQAGGSLRLSCAASGFTFRANAMGWYRQAPGKERELFATISRGGPTNYADSVKGRFTISRDNAKNTVYLQMNSLKPADTAVYYCAASFSPYHTDRGDYWGQGTQVTVSS”, the “polyreactivity (PSR sort gate)” value is “high polyreactivity”.

With “QVQLVESGGGLVQAGGSLRLSCAASGFTFRAYAMGSYRQAPGKERELVAAISTGGGSTYYADSVKGRFTISRDNAKNTVYLQMNSLKPEDTAVYYCNALPQRRYYYWGQGTQVTVSS”, the “polyreactivity (PSR sort gate)” value was “high polyreactivity”.

With “QVQLVESGGGLVQAGGSLRLSCAASGFTFRAYAMGWYRQAPGKERELVAAISSGGGRTYYADSVKGRFTISRDNAKNTVYLQMNSLKPEDTAVYYCAADNYPGTRYDYWGQGTQVTVSS”, the “polyreactivity (PSR sort gate)” value is “high polyreactivity”.

For “QVQLVESGGGLVQAGGSLRLSCAASGFTFRAYAMGWYRQAPGKERELVAGISGSGGRTYYADSVKGRFTISRDNAKNTVYLQMNSLKPEDTAVYYCAAEYRLYGYQYDYWGQGTQVTVSS”, the “polyreactivity (PSR sort gate)” value is “high polyreactivity”.

As to “QVQLVESGGGLVQAGGSLRLSCAASGFTFRAYAMGWYRQAPGKERELVATITRSGGSTFYADSVKGRFTISRDNAKNTVYLQMNSLKPEDTAVYYCAAVYRFPCRYAWYKYDDWGQGTQVTVSS”, the “polyreactivity (PSR sort gate)” value is given as “high polyreactivity”.

As to “QVQLVESGGGLVQAGGSLRLSCAASGFTFRAYTMGWYRQAPGKERELVAAITYSGGPTYYADSVKGRFTISRDNAKNTVYLQMNSLKPEDTAVYYCAKRGWALSEYYYWGQGTQVTVSS”, the “polyreactivity (PSR sort gate)” value is recorded as “high polyreactivity”.

As to “QVQLVESGGGLVQAGGSLRLSCAASGFTFRDYAMGWYRPAPGKERELVAAITRSGGRTYYADSVKGRFTISRDNAKNTVYLQMNSLKPEDTAVYYCAAQLPYYGYDYWGQGTQVTVSS”, the “polyreactivity (PSR sort gate)” value is “low polyreactivity”.
